Source: PMC12809092, “A bispecific antibody designed to act as a NRP2/PLXNA1 agonist mimics anticancer activity of SEMA3F” (The Journal of Biological Chemistry, 2025)
Values belong to the binder of their own block, whether it stands above or below them.

Experiments:
[1] = molecular target: T1, PLXNA1-LBD, recombinant human plexinA1 ligand-binding domains (human, UniProt Q9UIW2); test: BLI; Octet Red96e; Fab captured on streptavidin tips by biotinylated anti-LC-kappa-murine antibody; PLXNA1 ECD or LBD in solution at 1.85-1350 nM; global fit, 1:1 model; details: both partners purified
T1 construct: the DNA encoded amino acids 1-710 of NP_115618.3 (signal peptide removed on secretion); The final cryo-EM model holds only the SEMA and PSI1 domains; also called hPLXNA1 LBD; source: Expi293F, transfected, purified from culture media (HiTrap MabSelect column)

[2] = molecular target: T2, PLXNA1-ECD, recombinant human plexinA1 full extracellular domains (Homo sapiens, UniProt Q9UIW2); test: as above; details: both partners purified
T2 construct: plexinA1, human, extracellular domains, aa 27-1244; the DNA encoded amino acids 1-1244 of NP_115618.3 (signal peptide removed on secretion); also called hPLXNA1 ECD; source: Expi293F, transfected, purified from culture media (HiTrap MabSelect column)

[3] = molecular target: the molecule itself; test: cryo-EM structure; purified complex of PLXNA1-LBD and aPLXNA1-19-43 Fab; 3.33 Å
[4] = molecular target: T3, hNRP2_ECD, human neuropilin-2 extracellular domain (Homo sapiens, UniProt O60462); test: BLI; affinity of aNRP2 mAbs to hNRP2_ECD, shown as KD; as previously described; mean ± SEM of at least 3 experiments; details: both partners purified
T3 construct: neuropilin-2, human, extracellular domain
T3 sequence (O60462 21-864): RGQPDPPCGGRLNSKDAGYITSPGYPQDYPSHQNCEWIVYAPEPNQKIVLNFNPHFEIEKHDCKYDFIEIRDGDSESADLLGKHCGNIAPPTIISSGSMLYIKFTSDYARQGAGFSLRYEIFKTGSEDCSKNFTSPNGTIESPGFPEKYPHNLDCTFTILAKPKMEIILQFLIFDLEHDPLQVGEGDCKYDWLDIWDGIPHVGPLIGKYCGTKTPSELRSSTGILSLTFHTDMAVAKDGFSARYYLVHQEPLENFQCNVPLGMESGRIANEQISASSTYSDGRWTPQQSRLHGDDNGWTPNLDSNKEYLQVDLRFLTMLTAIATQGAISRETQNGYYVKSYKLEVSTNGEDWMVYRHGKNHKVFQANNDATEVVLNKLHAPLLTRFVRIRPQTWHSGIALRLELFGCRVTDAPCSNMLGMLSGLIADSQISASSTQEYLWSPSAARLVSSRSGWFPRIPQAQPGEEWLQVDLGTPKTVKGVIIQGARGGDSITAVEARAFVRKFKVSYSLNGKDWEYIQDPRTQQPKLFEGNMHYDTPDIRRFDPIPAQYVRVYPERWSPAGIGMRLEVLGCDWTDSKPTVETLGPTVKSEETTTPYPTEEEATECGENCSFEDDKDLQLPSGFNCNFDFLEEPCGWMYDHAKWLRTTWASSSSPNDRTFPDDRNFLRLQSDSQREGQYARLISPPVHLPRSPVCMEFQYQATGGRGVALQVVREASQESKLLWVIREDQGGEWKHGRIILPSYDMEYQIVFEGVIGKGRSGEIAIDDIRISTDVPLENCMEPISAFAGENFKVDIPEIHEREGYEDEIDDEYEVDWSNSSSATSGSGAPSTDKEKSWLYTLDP

Kd [1]: 5.99 ± 1.14 nM
Kd [2]: 2.37 ± 0.78 nM
B1: aPLXNA1-19-43 Fab (Fab, V domains shown)
VH: EVQLQQSGPELVKPGASVKISCKASGYKFTENYMDWVKQSHGESLEWIGDISPDNGDTSYNQKFRDKATLTVDKSSSTAYMELRSLTSEDSAVYYCAQIIYYDYVGYALDYWGQGTSVTVSS
VL: QIVLTQSPAILSASPGEKVTMSCSVSSSITYMHWYQQKPGTSPKRWIYDTSKLASGVPARFSGSGSGTSFSLTISNMEAEDAATYYCHQRSSYPYSFGGGTKLEIK
notes: VH of aPLXNA1-19-43; also in the deposited structure; constant part of the Fab heavy chain, mouse IgG1 backbone; VL (kappa) of aPLXNA1-19-43; mouse kappa light chain constant region (Fab captured by an anti-LC-kappa-murine antibody); Fab of the mAb aPLXNA1-19-43, the anti-PLXNA1 half of m6; also called aPLXNA1 Fab 19 to 43; aPLXNA1 Fab-P1943; source: Expi293F, transfected, purified from culture …

B2: PLXNA1-LBD, recombinant human plexinA1 ligand-binding domains (domain or fragment, UniProt Q9UIW2 27-710, looked up)
chain: EAGLPRAGGGSQPPFRTFSASDWGLTHLVVHEQTGEVYVGAVNRIYKLSGNLTLLRAHVTGPVEDNEKCYPPPSVQSCPHGLGSTDNVNKLLLLDYAANRLLACGSASQGICQFLRLDDLFKLGEPHHRKEHYLSSVQEAGSMAGVLIAGPPGQGQAKLFVGTPIDGKSEYFPTLSSRRLMANEEDADMFGFVYQDEFVSSQLKIPSDTLSKFPAFDIYYVYSFRSEQFVYYLTLQLDTQLTSPDAAGEHFFTSKIVRLCVDDPKFYSYVEFPIGCEQAGVEYRLVQDAYLSRPGRALAHQLGLAEDEDVLFTVFAQGQKNRVKPPKESALCLFTLRAIKEKIKERIQSCYRGEGKLSLPWLLNKELGCINSPLQIDDDFCGQDFNQPLGGTVTIEGTPLFVDKDDGLTAVAAYDYRGRTVVFAGTRSGRIRKILVDLSNPGGRPALAYESVVAQEGSPILRDLVLSPNHQYLYAMTEKQVTRVPVESCVQYTSCELCLGSRDPHCGWCVLHSICSRRDACERADEPQRFAADLLQCVQLTVQPRNVSVTMSQVPLVLQAWNVPDLSAGVNCSFEDFTESESVLEDGRIHCRSPSAREVAPITRGQGDQRVVKLYLKSKETGKKFASVDFVFYNCSVHQSCLSCVNGSFPCHWCKYRHVCTHNVADCAFLEGRVNVSEDCPQIL
notes: the DNA encoded amino acids 1-710 of NP_115618.3 (signal peptide removed on secretion); The final cryo-EM model holds only the SEMA and PSI1 domains; also called hPLXNA1 LBD; source: Expi293F, transfected, purified from culture media (HiTrap MabSelect column)
stoichiometry N [3]: 2

Kd [4]: 0.33 nM
B3: aNRP2-b2cL, anti-NRP2 mAb (antibody, V domains shown)
VH: QVRLQQPGAELVMPGASVKLSCKASGYTFTSYWMHWVKQRPGQGLEWIGVIHPNSASTFYNERFKTKATLTVDRSSSTAYMQLSSLTSEDSAVYYCSRPGTVRRSDYWGQGTTLTVSS
VL: DVLMTQSPLSLSVSLGDQASISCRSSQNIVHSTGNTYLEWYLQKPGQSPKLLIYKVSNRFSGVPDRFSGSGSGTDFTLKISRVEAEDLGVYYCFQGSHVPWTFGGGTKLEIK
notes: also called Nb2cL
